According to US20170044259A1 (CYTOMX THERAPEUTICS, published 2017):
Where a chain is given by its changes, count along the chain named. In names and notes the source's numbering stands.

B1: m136-M13-MHC723 (antibody, V domains shown)
VH: EVKLVESGGGLVKPGGSLKLSCAASGFTFSGYAMSWVRQTPAKRLEWVAYISNSGGNAHYPDSVKGRFTISRDNAKNTLYLQMSSLRSEDTAMYYCTREDYGTSPFVYWGQGTLVTVSA
VL: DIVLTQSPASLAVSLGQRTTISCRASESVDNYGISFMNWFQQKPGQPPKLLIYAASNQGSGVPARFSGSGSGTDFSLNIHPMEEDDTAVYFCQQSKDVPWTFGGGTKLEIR
notes: mouse hybridoma antibody, mIgG1/K
B2: m136-M14-MHC724 (antibody, V domains shown)
VH: KVMLVESGGDLVKPGGSLKLSCAASGFTFSSYGMSWVRQTPEKRLEWVATISGGGRDIYYADTVKGRFTISRDNAKNTLYLQMSSLRSEDTALYFCARLYLGFDYWGQGTTLTVSS
VL: DIQMTQSPASQSASLGESVTITCLASQTIGTWLAWYQQKPGKSPQLLIYAATSLADGVPSRFSGSGSGTKFSFKISSLQAEDFVSYYCQQLYSIPWTFGGGTKLEIK
notes: mouse hybridoma antibody, mIgG2a/K
B3: m245-M3-MHC728 (antibody, V domains shown)
VH: B1 VH with G31N, S54G, N57D, A58T, V64L, I70V, R87K, T97A, D100N
VL: not shown
notes: as for B2
B4: m245-M5-MHC729 (antibody, V domains shown)
VH: EVQLVESGGGLVKSGGSLKLSCAHSGFSFSSYDMSWVRQTPAKRLEWVATISGGGRYTYYPDSVKGRFTISRDNAKNTLYLQMSGLRSEDTAMYYCASNYYGFDYWGQGTTLTVSS
VL: DIVMTQSHKFMSTSVGDRVSITCKASQDVGTAVAWYQQKPGQSPKLLIYWASTRHTGVPDRFTGSGSGTDFTLTISNVQSEDLADYFCQQYSSYPWTFGGGTKLEIK
notes: as for B1
B5: m136-M19-MHC725 (antibody, V domains shown)
VH: EVQLQQSGPELVKPGDSVKMSCKASGYTFTDYYMDWVKQSHGKSLEWIGYIYPKNGGSSYNQKFKGKATLTVDKSSSTAYMELHSLTSEDSAVYYCARKVVATDYWGQGTTLTVSS
VL: DIVMSQSPSSLAVSVGEKVTMSCKSSQSLLYSSNQKNYLAWYQQKPGQSPKLLIFWASIRESGVPDRFTGSGSGTDFTLTISSVKAEDRAVYYCQQCDSYPWTFGGGTKLEIK
notes: mouse hybridoma antibody, mIgG2b/K
B6: PD-1 1.4 PD003 2001 (antibody, human IgG4 S228P, kappa)
heavy: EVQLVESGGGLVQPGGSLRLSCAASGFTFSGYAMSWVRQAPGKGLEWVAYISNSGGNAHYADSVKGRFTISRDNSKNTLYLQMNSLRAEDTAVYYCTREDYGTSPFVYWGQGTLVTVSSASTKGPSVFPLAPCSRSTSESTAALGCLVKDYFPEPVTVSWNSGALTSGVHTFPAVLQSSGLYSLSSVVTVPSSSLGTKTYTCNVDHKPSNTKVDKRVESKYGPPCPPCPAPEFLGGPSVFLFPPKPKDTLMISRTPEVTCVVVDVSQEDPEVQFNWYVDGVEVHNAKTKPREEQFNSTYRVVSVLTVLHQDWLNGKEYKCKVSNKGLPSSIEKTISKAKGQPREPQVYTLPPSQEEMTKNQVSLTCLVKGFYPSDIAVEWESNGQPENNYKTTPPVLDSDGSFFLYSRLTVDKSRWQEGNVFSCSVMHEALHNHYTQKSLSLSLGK
light: QGQSGQGLVCPLYALSSGVCMGGGGSSGGSISSGLLSGRSDNHGGGSDIQLTQSPSSLSASVGDRVTITCRASESVDSYGISFMNWFQQKPGKAPKLLIYAASNQGSGVPSRFSGSGSGTDFTLTISSMQPEDFATYYCQQSKDVPWTFGQGTKLEIKRTVAAPSVFIFPPSDEQLKSGTASVVCLLNNFYPREAKVQWKVDNALQSGNSQESVTEQDSKDSTYSLSSTLTLSKADYEKHKVYACEVTHQGLSSPVTKSFNRGEC
notes: also called PD03 (A1.4)
B7: PD-1 1.4 PD008 2001 (antibody, human IgG4 S228P, kappa)
heavy: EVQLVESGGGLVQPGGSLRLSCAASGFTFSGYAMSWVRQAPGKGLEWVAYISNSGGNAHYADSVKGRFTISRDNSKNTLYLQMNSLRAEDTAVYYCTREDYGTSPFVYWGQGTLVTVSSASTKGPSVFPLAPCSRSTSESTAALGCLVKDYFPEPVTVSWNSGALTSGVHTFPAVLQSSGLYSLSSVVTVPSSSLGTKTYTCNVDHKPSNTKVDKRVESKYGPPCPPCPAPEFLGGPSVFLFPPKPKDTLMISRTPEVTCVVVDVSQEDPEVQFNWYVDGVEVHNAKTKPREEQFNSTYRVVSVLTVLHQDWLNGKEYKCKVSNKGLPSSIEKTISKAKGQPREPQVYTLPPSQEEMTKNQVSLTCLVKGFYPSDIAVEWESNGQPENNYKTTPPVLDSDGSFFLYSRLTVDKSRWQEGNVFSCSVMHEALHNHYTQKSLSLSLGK
light: B6 light with L8E, V9T, P11N, L12Q, A14E, L15R, V19L, M21F, G22A
notes: also called PD08 (A1.4)
B8: PD-1 1.4 PD010 2001 (antibody, human IgG4 S228P, kappa)
heavy: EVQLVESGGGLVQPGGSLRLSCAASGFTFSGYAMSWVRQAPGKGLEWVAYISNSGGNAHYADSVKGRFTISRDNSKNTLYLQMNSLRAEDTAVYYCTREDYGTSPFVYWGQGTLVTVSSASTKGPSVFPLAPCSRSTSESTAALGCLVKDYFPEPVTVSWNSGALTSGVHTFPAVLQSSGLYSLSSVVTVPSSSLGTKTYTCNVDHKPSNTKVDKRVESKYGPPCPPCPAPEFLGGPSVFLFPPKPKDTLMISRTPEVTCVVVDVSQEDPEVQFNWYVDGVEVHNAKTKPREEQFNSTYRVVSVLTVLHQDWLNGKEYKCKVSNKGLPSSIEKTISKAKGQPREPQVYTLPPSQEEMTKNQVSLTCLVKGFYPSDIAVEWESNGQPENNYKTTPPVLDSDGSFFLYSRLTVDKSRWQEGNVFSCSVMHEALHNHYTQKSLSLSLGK
light: B6 light with L8G, V9L, P11S, L12W, A14L, L15S, V19L, M21V, G22D
notes: also called PD-10 (A1.4); PD10 (A1.4)
B9: PD-1 1.4 PD001 2001 (antibody, human IgG4 S228P, kappa)
heavy: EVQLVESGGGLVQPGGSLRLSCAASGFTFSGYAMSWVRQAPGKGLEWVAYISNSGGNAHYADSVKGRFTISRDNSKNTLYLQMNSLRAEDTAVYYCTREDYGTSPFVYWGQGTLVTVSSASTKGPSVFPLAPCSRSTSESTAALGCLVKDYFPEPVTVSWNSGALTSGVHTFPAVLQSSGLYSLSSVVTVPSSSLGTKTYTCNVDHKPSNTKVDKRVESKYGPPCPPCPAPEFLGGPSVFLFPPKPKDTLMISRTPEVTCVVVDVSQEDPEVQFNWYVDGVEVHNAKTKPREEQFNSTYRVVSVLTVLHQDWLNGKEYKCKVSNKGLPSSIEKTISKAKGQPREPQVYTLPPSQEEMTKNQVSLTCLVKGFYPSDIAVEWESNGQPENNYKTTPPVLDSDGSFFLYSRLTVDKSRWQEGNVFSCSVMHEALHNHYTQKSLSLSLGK
light: QGQSGQGAMSGCSWSAFCPYLAGGGSSGGSISSGLLSGRSDNHGGGSDIQLTQSPSSLSASVGDRVTITCRASESVDSYGISFMNWFQQKPGKAPKLLIYAASNQGSGVPSRFSGSGSGTDFTLTISSMQPEDFATYYCQQSKDVPWTFGQGTKLEIKRTVAAPSVFIFPPSDEQLKSGTASVVCLLNNFYPREAKVQWKVDNALQSGNSQESVTEQDSKDSTYSLSSTLTLSKADYEKHKVYACEVTHQGLSSPVTKSFNRGEC
notes: hIgG4 S228P/hK; also called PD01 (A1.4)
B10: PD-1 1.4 PD002 2001 (antibody, human IgG4 S228P, kappa)
heavy: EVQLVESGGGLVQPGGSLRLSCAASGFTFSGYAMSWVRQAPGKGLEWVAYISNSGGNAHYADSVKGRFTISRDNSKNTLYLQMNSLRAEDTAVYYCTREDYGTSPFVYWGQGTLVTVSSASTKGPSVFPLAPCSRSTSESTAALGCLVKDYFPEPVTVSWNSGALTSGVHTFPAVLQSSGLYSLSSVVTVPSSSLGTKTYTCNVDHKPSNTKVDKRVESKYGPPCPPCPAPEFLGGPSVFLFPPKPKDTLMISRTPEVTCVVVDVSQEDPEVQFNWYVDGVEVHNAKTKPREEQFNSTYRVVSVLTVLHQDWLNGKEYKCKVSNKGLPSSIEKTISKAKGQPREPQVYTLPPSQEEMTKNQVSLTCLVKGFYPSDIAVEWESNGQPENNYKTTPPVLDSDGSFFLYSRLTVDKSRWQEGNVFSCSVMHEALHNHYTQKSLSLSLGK
light: QGQSGQGDVNCAIWYSVCTTVPGGGSSGGSISSGLLSGRSDNHGGGSDIQLTQSPSSLSASVGDRVTITCRASESVDSYGISFMNWFQQKPGKAPKLLIYAASNQGSGVPSRFSGSGSGTDFTLTISSMQPEDFATYYCQQSKDVPWTFGQGTKLEIKRTVAAPSVFIFPPSDEQLKSGTASVVCLLNNFYPREAKVQWKVDNALQSGNSQESVTEQDSKDSTYSLSSTLTLSKADYEKHKVYACEVTHQGLSSPVTKSFNRGEC
notes: also called PD02 (A1.4)
B11: PD-1 1.4 PD009 2001 (antibody, human IgG4 S228P, kappa)
heavy: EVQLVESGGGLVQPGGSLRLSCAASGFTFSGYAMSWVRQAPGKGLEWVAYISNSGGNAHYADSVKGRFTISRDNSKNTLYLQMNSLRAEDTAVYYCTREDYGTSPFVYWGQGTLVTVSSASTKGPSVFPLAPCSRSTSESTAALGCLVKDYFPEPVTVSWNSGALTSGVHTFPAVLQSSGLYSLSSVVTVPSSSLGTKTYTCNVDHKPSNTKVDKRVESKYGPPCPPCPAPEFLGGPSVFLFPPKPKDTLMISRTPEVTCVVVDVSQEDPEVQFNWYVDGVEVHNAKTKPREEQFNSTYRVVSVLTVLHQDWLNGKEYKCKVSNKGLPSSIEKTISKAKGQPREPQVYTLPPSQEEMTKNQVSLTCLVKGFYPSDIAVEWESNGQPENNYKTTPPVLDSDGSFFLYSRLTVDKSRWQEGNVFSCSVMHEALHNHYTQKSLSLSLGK
light: QGQSGQGAPRTCYTYQCSSFYTGGGSSGGSISSGLLSGRSDNHGGGSDIQLTQSPSSLSASVGDRVTITCRASESVDSYGISFMNWFQQKPGKAPKLLIYAASNQGSGVPSRFSGSGSGTDFTLTISSMQPEDFATYYCQQSKDVPWTFGQGTKLEIKRTVAAPSVFIFPPSDEQLKSGTASVVCLLNNFYPREAKVQWKVDNALQSGNSQESVTEQDSKDSTYSLSSTLTLSKADYEKHKVYACEVTHQGLSSPVTKSFNRGEC
notes: also called PD09 (A1.4)
B12: J43v2 mIgG2a (antibody, V domains shown)
VH: EVRLLESGGGLVKPEGSLKLSCVASGFTFSDYFMSWVRQAPGKGLEWVAHIYTKSYNYATYYSGSVKGRFTISRDDSRSMVYLQMNNLRTEDTATYYCTRDGSGYPSLDFWGQGTQVTVSS
VL: YELTQPPSASVNVGETVKITCSGDQLPKYFADWFHQRSDQTILQVIYDDNKRPSGIPERISGSSSGTTATLTIRDVRAEDEGDYYCFSGYVDSDSKLYVFGSGTQLTVLG
notes: also called J43 m2a; J43v2 m2a
B13: C1.1 (antibody, human IgG4 S228P, kappa, V domains shown)
VH: EVQLVESGGGLVQPGGSLRLSCAASGFTFSNYAMSWVRQAPGKGLEWVAYISNGGGDTHYADSLKGRFTVSRDNSKNTLYLQMNSLRAEDTAVYYCARENYGTSPFVYWGQGTLVTVSS
VL: DIQLTQSPSSLSVSVGDRATITCRASESVDNYGISFMNWFQQKPGKAPKLLIYAASNQGSGVPSRFSGSGSGTDFTLTISSMQPEDFATYYCQQSKDVPWTFGQGTKLEIKR
notes: humanized, full length hIgG4/hKappa
B14: Bb2 (antibody, human IgG4 S228P, kappa, V domains shown)
VH: QVQLVQSGAEVKKPGASVKMSCKASGYTFTDYYMDWVRQAPGQGLEWIGYIYPKNGGSSYAQKFQGRATLTVDKSTSTAYMELSSLRSEDTAVYYCARKVVATDYWGQGTLLTVSS
VL: DIQMTQSPSSLSASVGDRVTMTCKSSQSLLYSSNQKNYLAWYQQKPGKAPKLLIFWASIRESGVPSRFSGSGSGTDFTLTISSVQPEDFATYYCQQSDSYPWTFGQGTKLEIKR
notes: as for B13
B15: D4 (antibody, human IgG4 S228P, kappa, V domains shown)
VH: EVQLVESGGGLVQPGGSLRLSCAHSGFSFSSYDMSWVRQAPGKGLEWVATISGGGRYTYYADSVKGRFTISRDNSKNTLYLQMNSLRAEDTAVYYCASNYYGFDYWGQGTLLTVSS
VL: DIQMTQSPSSLSASVGDRVTITCKASQDVGTAVAWYQQKPGKAPKLLIYWASTRHTGVPSRFSGSGSGTDFTLTISSVQPEDFATYYCQQYSSYPWTFGQGTKLEIKR
notes: as for B13

target: T1, human PD-1-Fc (R and D systems, Minneapolis, Minn.) (human, UniProt Q15116 25-167); assay: inhibition ELISA on human PD-1-Fc; competitor 2 nM biotinylated PDL2 (hPDL2/Fc)
T1 construct: bought; also called hPD-1-Fc; hPD-1; not shown: Fc part of the bought fusion
T1 sequence (Q15116 25-167 limits assumed): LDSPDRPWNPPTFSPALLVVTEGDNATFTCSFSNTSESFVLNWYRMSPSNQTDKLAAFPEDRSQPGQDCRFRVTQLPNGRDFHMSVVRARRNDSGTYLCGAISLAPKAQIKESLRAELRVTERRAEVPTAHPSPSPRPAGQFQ

Which IC50 does the source give for B1 here?
The IC50 was 2000 pM.

B2 was tested. Which IC50 did it give?
The IC50 was 2800 pM.

target: T1, human PD-1-Fc (R and D systems, …); assay: plate ELISA on adsorbed human PD-1-Fc, single site saturation fit

With B3 as the binder, how does the Kd read?
Its Kd is 220 pM.

Which Kd does the source give for B1 here?
The Kd was 190 pM.

With B2 as the binder, how does the Kd read?
The Kd was 190 pM.

With B4 as the binder, how does the Kd read?
The Kd was 340 pM.

Which Kd does the source give for B5 here?
Its Kd is 230 pM.

target: T1, human PD-1-Fc (R and D systems, …); assay: plate ELISA on human PD-1-Fc; reference A1.4

B6 was tested. Which “ME (masking efficiency, Kd of the activatable antibody divided by Kd of the parental antibody)” value did it give?
The value was 5.

With B7 as the binder, how does the “ME (masking efficiency, Kd of the activatable antibody divided by Kd of the parental antibody)” value read?
The value was 13.

For B8, which “ME (masking efficiency, Kd of the activatable antibody divided by Kd of the parental antibody)” value is on record?
Its value is 13.

B9 was tested. Which “ME (masking efficiency, Kd of the activatable antibody divided by Kd of the parental antibody)” value did it give?
The value was 25.

For B10, which “ME (masking efficiency, Kd of the activatable antibody divided by Kd of the parental antibody)” value is on record?
Its value is 18.

B11 was tested. Which “ME (masking efficiency, Kd of the activatable antibody divided by Kd of the parental antibody)” value did it give?
Its value is 2.

target: T2, mouse PD-1 expressed on HEK293 cells (mouse, UniProt Q02242 25-288); assay: flow cytometry on mPD-1 HEK293 cells, titration from 150 nM
T2 construct: whole, on cells; also called HEK293-mPD-1; mPD-1 HEK293 cells
T2 sequence (looked up): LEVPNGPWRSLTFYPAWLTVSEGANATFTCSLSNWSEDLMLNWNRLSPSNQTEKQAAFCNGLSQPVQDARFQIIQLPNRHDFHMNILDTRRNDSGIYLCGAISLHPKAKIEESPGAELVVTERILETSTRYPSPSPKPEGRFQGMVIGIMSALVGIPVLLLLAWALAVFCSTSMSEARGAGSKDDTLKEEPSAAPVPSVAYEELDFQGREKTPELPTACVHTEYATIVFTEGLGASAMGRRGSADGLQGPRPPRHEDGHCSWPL

Does B12 bind?
Result: binds

target: T1, human PD-1-Fc (R and D systems, …); assay: plate ELISA on human PD-1-Fc

Does B13 bind?
Result: binds

Does B14 bind?
Result: binds

Does B15 bind?
Result: binds

target: T1, human PD-1-Fc (R and D systems, …); assay: inhibition ELISA on human PD-1-Fc; competitor 2 nM biotinylated PD-L1 (hPDL1/Fc)

With B1 as the binder, how does the IC50 read?
The IC50 was 3300 pM.

How did the IC50 turn out when B2 was run?
Its IC50 is 4800 pM.
